Assay results as given in patent US20230071371A1 (Scripps Research, published 2023).
Numbering of substitutions follows the chain as printed. Names may count otherwise. Where two headings read alike, the source gives them in different places. Bridges are numbered along the chain shown (N, C = ends). Where no end group is shown, it is not given here. [ ]: non-standard residue; d: D form. hArg = N=C(N)NCCCC[C@H](N)C(=O)O; staple K4 = not defined here; staple K5 = not defined here; Nle = CCCC[C@H](N)C(=O)O; L4A = not defined here; L5A = not defined here; K0 = not defined here; K4 = not defined here; K5 = not defined here; L4 = not defined here; L5 = not defined here; Aib = CC(C)(N)C(=O)O

How the values were obtained:
rat serum albumin (rat) = rat serum albumin (rat) (UniProt P02770); test: calculated from the SPR affinity
Chain of rat serum albumin (rat) (P02770 25-608 limits assumed): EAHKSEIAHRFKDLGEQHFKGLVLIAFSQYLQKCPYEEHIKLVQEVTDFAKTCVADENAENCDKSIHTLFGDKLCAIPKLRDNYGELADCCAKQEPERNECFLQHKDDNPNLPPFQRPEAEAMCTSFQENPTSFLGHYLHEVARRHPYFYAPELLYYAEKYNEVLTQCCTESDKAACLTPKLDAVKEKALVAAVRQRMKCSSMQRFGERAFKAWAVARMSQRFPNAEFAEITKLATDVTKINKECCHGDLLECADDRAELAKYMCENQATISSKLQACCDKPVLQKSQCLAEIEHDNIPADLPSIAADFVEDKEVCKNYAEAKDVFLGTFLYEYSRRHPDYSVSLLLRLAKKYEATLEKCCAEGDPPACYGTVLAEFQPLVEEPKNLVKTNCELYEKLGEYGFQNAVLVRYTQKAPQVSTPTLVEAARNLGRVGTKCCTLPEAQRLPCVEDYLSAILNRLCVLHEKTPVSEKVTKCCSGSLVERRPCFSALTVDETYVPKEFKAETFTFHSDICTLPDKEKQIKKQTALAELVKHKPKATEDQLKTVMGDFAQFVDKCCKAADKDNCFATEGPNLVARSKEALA

[1] = biological target: human serum albumin (human) (UniProt P02768); test: calculated from the SPR affinity
Chain of human serum albumin (human) (P02768 25-609 limits assumed): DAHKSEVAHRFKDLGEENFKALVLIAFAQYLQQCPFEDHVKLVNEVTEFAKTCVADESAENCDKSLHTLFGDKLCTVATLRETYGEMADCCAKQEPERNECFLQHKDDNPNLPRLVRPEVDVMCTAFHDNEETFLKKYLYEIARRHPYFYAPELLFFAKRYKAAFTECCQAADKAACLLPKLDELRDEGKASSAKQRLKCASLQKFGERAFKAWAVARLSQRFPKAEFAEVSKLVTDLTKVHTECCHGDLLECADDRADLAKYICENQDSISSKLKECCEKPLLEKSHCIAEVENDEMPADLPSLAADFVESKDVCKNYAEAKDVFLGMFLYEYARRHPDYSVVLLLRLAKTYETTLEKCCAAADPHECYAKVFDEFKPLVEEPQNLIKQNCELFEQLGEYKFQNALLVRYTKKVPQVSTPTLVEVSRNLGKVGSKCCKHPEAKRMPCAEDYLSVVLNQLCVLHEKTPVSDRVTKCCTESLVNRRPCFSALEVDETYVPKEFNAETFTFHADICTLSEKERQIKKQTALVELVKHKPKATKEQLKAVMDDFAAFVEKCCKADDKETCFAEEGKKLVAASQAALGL

human GIPR [2] = biological target: T1, human GIPR (human, UniProt P48546 22-466)
T1 sequence (looked up): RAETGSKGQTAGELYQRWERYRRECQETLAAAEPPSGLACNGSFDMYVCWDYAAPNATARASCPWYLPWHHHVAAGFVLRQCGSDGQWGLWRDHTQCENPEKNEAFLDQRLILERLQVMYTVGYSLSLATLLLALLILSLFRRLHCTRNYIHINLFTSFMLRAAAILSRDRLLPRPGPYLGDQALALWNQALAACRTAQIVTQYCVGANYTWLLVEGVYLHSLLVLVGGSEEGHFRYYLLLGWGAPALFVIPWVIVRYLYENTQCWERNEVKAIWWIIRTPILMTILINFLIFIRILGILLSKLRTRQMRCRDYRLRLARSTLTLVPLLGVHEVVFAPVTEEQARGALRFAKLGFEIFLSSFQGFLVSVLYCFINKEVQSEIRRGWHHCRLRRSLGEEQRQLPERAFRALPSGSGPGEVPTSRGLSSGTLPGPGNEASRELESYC

human GLP-1R [3] = biological target: T2, human GLP-1R (human, UniProt P43220 24-463)
Target sequence in this assay (P43220 24-463): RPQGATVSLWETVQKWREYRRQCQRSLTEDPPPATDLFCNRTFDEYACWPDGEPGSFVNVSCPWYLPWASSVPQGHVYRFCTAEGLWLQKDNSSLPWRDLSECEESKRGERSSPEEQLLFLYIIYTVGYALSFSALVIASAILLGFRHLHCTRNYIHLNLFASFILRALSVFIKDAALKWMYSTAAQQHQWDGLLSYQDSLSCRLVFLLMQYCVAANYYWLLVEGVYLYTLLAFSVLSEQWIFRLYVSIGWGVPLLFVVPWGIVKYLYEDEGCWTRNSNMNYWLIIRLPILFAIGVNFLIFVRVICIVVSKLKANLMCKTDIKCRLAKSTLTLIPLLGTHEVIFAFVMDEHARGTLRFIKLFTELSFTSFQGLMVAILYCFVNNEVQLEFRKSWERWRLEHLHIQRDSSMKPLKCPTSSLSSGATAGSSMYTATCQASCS

human GLP-1R [4] = biological target: T2, human GLP-1R; test: cell-based or functional assay
human GCGR = human GCGR (human, UniProt P47871 26-477); test: cell-based or functional assay
Chain of human GCGR (P47871 26-477): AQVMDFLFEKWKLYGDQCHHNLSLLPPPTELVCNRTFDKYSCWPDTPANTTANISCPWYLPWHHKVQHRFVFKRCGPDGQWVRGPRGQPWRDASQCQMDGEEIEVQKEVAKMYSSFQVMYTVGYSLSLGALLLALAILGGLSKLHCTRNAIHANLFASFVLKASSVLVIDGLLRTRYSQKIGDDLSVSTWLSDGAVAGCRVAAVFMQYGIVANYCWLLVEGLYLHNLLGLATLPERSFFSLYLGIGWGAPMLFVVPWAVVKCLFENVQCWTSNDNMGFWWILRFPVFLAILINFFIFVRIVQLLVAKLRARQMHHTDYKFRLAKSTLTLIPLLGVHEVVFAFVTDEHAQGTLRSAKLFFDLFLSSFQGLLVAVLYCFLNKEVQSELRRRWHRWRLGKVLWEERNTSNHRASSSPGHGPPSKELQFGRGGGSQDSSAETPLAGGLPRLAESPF

human GLP-1R (human) = human GLP-1R (human) (UniProt P43220); test: cell-based or functional assay
Chain of human GLP-1R (human) (P43220 24-463): as the sequence (P43220 24-463) above

human GCGR (human) = human GCGR (human) (UniProt P47871); test: cell-based or functional assay
Chain of human GCGR (human) (P47871 26-477): as the sequence (P47871 26-477) above

human GLP-1R [5] = biological target: T2, human GLP-1R; test: cell-based or functional assay; remark: listed apart in the source
human GIPR [6] = biological target: T1, human GIPR; test: cell-based or functional assay
human GLP-1R [7] = biological target: T2, human GLP-1R; test: cell-based or functional assay; remark: listed apart in the source
human GIPR [8] = biological target: T1, human GIPR; test: cell-based or functional assay; remark: listed apart in the source
human GLP-1R [9] = biological target: T2, human GLP-1R; test: cell-based or functional assay; remark: listed apart in the source
GPR10 [10] = biological target: T3, GPR10 (UniProt P49683 1-370, limits assumed); test: cell-based or functional assay
T3 sequence (looked up): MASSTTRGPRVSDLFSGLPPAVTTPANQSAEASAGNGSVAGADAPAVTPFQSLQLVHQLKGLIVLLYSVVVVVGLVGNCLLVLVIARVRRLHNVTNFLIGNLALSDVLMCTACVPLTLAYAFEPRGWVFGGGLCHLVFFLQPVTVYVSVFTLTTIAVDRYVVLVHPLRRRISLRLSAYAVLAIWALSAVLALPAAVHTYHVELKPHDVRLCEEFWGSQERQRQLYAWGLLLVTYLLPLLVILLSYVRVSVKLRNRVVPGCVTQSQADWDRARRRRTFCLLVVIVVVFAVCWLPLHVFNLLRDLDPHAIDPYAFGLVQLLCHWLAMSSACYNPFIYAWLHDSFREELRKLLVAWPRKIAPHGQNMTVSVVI

human NPFF2R = human NPFF2R (human, UniProt Q9Y5X5 1-522); test: cell-based or functional assay
Chain of human NPFF2R (Q9Y5X5 whole entry): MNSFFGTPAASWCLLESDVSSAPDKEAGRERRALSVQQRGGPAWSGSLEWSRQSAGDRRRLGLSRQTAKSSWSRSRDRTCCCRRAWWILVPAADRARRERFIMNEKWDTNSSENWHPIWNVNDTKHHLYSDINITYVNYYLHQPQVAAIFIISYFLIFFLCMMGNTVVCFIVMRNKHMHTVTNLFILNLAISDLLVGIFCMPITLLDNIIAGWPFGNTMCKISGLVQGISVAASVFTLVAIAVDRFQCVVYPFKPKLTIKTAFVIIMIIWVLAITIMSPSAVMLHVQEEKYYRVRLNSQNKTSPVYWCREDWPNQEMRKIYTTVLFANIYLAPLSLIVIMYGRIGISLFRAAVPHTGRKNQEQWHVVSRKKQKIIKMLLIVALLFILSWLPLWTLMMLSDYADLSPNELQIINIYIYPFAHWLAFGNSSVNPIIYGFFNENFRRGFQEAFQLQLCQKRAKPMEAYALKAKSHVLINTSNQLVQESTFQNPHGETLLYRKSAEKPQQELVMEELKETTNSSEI

GPR10 [11] = biological target: T3, GPR10; test: cell-based or functional assay; remark: listed apart in the source

## semaglutide (peptide)
Rat serum albumin (rat)
  fu (unbound fraction): 3.3%
[1]
  fu (unbound fraction): 0.69%

## NNC0090-2746 (peptide)
Human GIPR [2]
  EC50 (read off the curve), CRE-luciferase reporter, GIPR Creluc: 0.008 nM

## Tirzepatide (peptide)
Human GLP-1R [3]
  EC50 (read off the curve), CRE-luciferase reporter, GLP1R-Creluc: 0.2 nM

B1: Conjugate 123 (peptide)
peptide: H[dS]QGTFTSDYSKYLDEKAAKEFIKWLLRA
modifications: linker 17-24 via K4; reading uncertain
Human GLP-1R [4]
  EC50 cAMP 0% FBS: 2.37 nM
Human GCGR
  EC50 cAMP 0% FBS: 0.451 nM

B2: Conjugate 128 (peptide)
peptide: HXQGTFTSDYSKYLDKKAAKEFKQWLLNGPSSGAPPPS
modifications: staple K4 on Lys 16, 23; Aib 2
Human GLP-1R [4]
  EC50 cAMP 0% FBS: 6.64 nM
Human GCGR
  EC50 cAMP 0% FBS: 16.2 nM

B3: Conjugate 136 (peptide)
peptide: H[dS]QGTFTSDYSKYLDECAAKEFICWLLRA
modifications: linker 17-24 via L4A; reading uncertain
Human GLP-1R [4]
  EC50 cAMP 0% FBS: 2.87 nM
Human GCGR
  EC50 cAMP 0% FBS: 0.559 nM

B4: Conjugate 126 (peptide)
peptide: HXQGTFTSDYSKYLDSKKAKEFVKWLLNXGPSSGAPPPS
modifications: not fully specified; staple K4 on Lys 17, 24; Aib 2, 29
Human GCGR
  EC50 cAMP 0% FBS: 0.092 nM

B5: Conjugate 135 (peptide)
peptide: H[dS]QGTFTSDYSKYLDECAAKEFICWLLNGGPSSGAPPPS
modifications: linker 17-24 via L4A; ends not checked
Human GLP-1R (human)
  EC50 cAMP 0% FBS: 0.0075 nM
Human GCGR (human)
  EC50 cAMP 0% FBS: 0.0068 nM

B6: Conjugate 141 (peptide)
peptide: YXEGTFTSDYSIYKDKQAAXKFVNWLLAGGPSSGAPPPS
modifications: staple K5 on Lys 14, 21; Aib 2, 20
Human GLP-1R [5]
  EC50 cAMP 0% FBS: 0.022 nM
Human GIPR [6]
  EC50 cAMP 0% FBS: 0.0048 nM
Human GLP-1R [7]
  EC50 Creluc: 0.01 nM
Human GIPR [8]
  EC50 Creluc: 0.02 nM

B7: Conjugate 168 (peptide)
peptide: B6 peptide with T7H, S11D, X20L, N24A
modifications: staple K5 on Lys 14, 21; Aib 2; Nle 20
Human GLP-1R [7]
  EC50 Creluc: > 1000 nM
Human GIPR [8]
  EC50 Creluc: 303 nM

B8: Conjugate 170 (peptide)
peptide: B6 peptide with X20L, N24A
modifications: staple K5 on Lys 14, 21; Aib 2; D-Ser 8, 11; Nle 20
Human GLP-1R [7]
  EC50 Creluc: 3.74 nM
Human GIPR [8]
  EC50 Creluc: 15.7 nM

B9: Conjugate 167 (peptide)
peptide: B6 peptide with T7H, S11D, X20L, N24A
modifications: staple K4 on Lys 14, 21; Aib 2; Nle 20
Human GLP-1R [7]
  EC50 Creluc: 18.8 nM
Human GIPR [8]
  EC50 Creluc: 20.4 nM

B10: Conjugate 169 (peptide)
peptide: B6 peptide with X20L, N24A
modifications: staple K4 on Lys 14, 21; Aib 2; D-Ser 8, 11; Nle 20
Human GLP-1R [7]
  EC50 Creluc: 1.32 nM
Human GIPR [8]
  EC50 Creluc: 11.3 nM

B11: Conjugate 181 (peptide)
peptide: HXEGTFTSDVSSYLEGKAAKEFIKWLVKGRG
modifications: staple K5 on Lys 17, 24; Aib 2; C-terminal -OH
Human GLP-1R [9]
  EC50 cAMP 0% FBS: 0.026 nM

B12: Conjugate 121 (peptide)
peptide: H[dS]QGTFTSDYSKYLDEKAAKEFIKWLLNGGPSSGAPPPS
modifications: linker 17-24 via K5; ends not checked
Human GLP-1R [4]
  EC50 cAMP 0% FBS: 1.36 nM
Human GCGR
  EC50 cAMP 0% FBS: 2.54 nM

B13: Conjugate 137 (peptide)
peptide: H[dS]QGTFTSDYSKYLDECAAKEFICWLLRA
modifications: linker 17-24 via L5A; reading uncertain
Human GLP-1R [4]
  EC50 cAMP 0% FBS: 2.02 nM
Human GCGR
  EC50 cAMP 0% FBS: 0.444 nM

B14: Conjugate 138 (peptide)
peptide: H[dS]QGTFTSDYSKYLDECAAKEFICWLLNGGPSSGAPPPS
modifications: linker 17-24 via L5A; ends not checked
Human GLP-1R (human)
  EC50 cAMP 0% FBS: 0.908 nM
Human GCGR (human)
  EC50 cAMP 0% FBS: 1.42 nM

B15: Conjugate 127 (peptide)
peptide: HXQGTFTSDYSKYLDSKKAQEFVKWLLNGPSSGAPPPS
modifications: staple K4 on Lys 17, 24; Aib 2
Human GLP-1R [4]
  EC50 cAMP 0% FBS: 0.148 nM
Human GCGR
  EC50 cAMP 0% FBS: 0.009 nM

B16: Conjugate 165 (peptide)
peptide: Y[Aib]EGTFHSDYDIYKDKQAA[Aib]KFVQWLLAGGPSSGAPPPS
modifications: linker 14-21 via staple K4; reading uncertain
Human GLP-1R [7]
  EC50 Creluc: 13.8 nM
Human GIPR [8]
  EC50 Creluc: 5.31 nM

B17: Conjugate 122 (peptide)
peptide: H[dS]QGTFTSDYSKYLDEKAAKEFIKWLLNGGPSSGAPPPS
modifications: linker 17-24 via K4; ends not checked
Human GLP-1R [4]
  EC50 cAMP 0% FBS: 0.0037 nM
Human GCGR
  EC50 cAMP 0% FBS: 0.07 nM

B18: Conjugate 142 (peptide)
peptide: Y[Aib]EGTFTSDYSIYKDKQAA[Aib]KFVNWLLAGGPSSGAPPPS
modifications: linker 14-21 via staple K4; reading uncertain
Human GIPR [6]
  EC50 cAMP 0% FBS: 0.008 nM
Human GLP-1R [7]
  EC50 Creluc: 0.02 nM
Human GIPR [8]
  EC50 Creluc: 0.02 nM

B19: Conjugate 129 (peptide)
peptide: HXQGTFTSDYSKYLDKKKAKEFKQWLLNXGRNRNNIA
modifications: staple K4 on Lys 16, 23; Aib 2, 29
Human GLP-1R [4]
  EC50 cAMP 0% FBS: 31.1 nM
Human GCGR
  EC50 cAMP 0% FBS: 56 nM

B20: Conjugate 186 (peptide)
peptide: H[Aib]EGTFTSDVSSYLEGCAAKEFICWLVKGRG-OH
modifications: linker 17-24 via L5A; reading uncertain
Human GLP-1R [9]
  EC50 Cre-Luc: 7.3 nM

B21: Conjugate 166 (peptide)
peptide: Y[Aib]EGTFHSDYDIYKDKQAA[Aib]KFVQWLLAGGPSSGAPPPS
modifications: linker 14-21 via staple K5; reading uncertain
Human GLP-1R [7]
  EC50 Creluc: 83.9 nM
Human GIPR [8]
  EC50 Creluc: 12.6 nM

B22: Conjugate 263 (peptide)
peptide: SRAHQCS[Nle]ETRTCDINPAWYTG[hArg]GIRPVGRF-NH2
modifications: linker 6-13 via L5; reading uncertain
GPR10 [10]
  GPR10 EC50 0% FBS: 7.8 nM
  GPR10 EC50 10% FBS: 80 nM
Human NPFF2R
  NPFF2R EC50 0% FBS: 520 nM
  NPFF2R EC50 10% FBS: > 10000 nM
GPR10 [11]
  GPR10 EC50: 80 nM

B23: Conjugate 125 (peptide)
peptide: HXQGTFTSDYSKYLDEKAAKEFIKWLLNGRNRNNIA
modifications: staple K4 on Lys 17, 24; Aib 2
Human GLP-1R [4]
  EC50 cAMP 0% FBS: 0.21 nM
Human GCGR
  EC50 cAMP 0% FBS: 0.626 nM

B24: Conjugate 124 (peptide)
peptide: H[dS]QGTFTSDYSKYLDEKAAKEFIKWLLNGGPSSGAPPPS
modifications: linker 17-24 via K0; ends not checked
Human GLP-1R [4]
  EC50 cAMP 0% FBS: 0.049 nM
Human GCGR
  EC50 cAMP 0% FBS: 0.319 nM

B25: Conjugate 259 (peptide)
peptide: SRAHQCS[Nle]ETRTCDINPAWYTG[hArg]GIRPVGRF-NH2
modifications: linker 6-13 via L4; reading uncertain
GPR10 [10]
  GPR10 EC50 0% FBS: 12 nM
  GPR10 EC50 10% FBS: 26 nM
Human NPFF2R
  NPFF2R EC50 0% FBS: 470 nM
  NPFF2R EC50 10% FBS: > 10000 nM
GPR10 [11]
  GPR10 EC50: 26 nM
